B1: Pistol ribozyme (parent)
chain: GGGUCGUUGUUCCAUAAUCGCGUGGAUAUGGCACGCAAGUUUCUACCGGGCACCGUAAAUGUCCGACUGGAGCCGUUCGGGCGGCUAUAAACAGACCUCAGGCCCGAAGCGUGGCGGCACCUGCCGCCGGUGGUAAAAAAGAUCGGAAGAGCACACGUCU

Variants of: B1
Assay: aptazyme ON/OFF ratio, guanine; higher = stronger switching; co-transcriptional cleavage with and without guanine

First: U7A U8G G9C U10A U11A C12A
Second: U7A U8G G9A U10A U11G C12A C13A
The “aptazyme ON/OFF ratio” value of the first is higher: 1.5 for the first, 1.1 for the second.

First: U7A U8G G9A U10A U11G C12A C13G
Second: U7A U8G G9A U10A U11G C12A C13U
The “aptazyme ON/OFF ratio” value of the first is lower: 1.37 for the first, 1.4 for the second.

Compared with U7A U8G G9A U10C U11A C13G, U7A U8G G9A U10C U11A C13U is higher in “aptazyme ON/OFF ratio” value: 1.1 for the first, 1.2 for the second.

Going from U7A U8G G9A U10C U11A C13A to U7A U8G G9C U10A U11C C12G C13U, the “aptazyme ON/OFF ratio” value rises from 1.16 to 1.26.

Compared with U7A U8G G9C U10A U11C C12G C13G, U7A U8G G9C U10A U11C C12G C13A is higher in “aptazyme ON/OFF ratio” value: 1.17 for the first, 1.27 for the second.

U7A U8G G9A U10C U11C C13G and U7A U8G G9A U10C U11C C13U are the same in “aptazyme ON/OFF ratio” value: 1.03 for the first, 1.03 for the second.

First: U7A U8G G9A U10C U11C C13A
Second: U7A U8G G9C U10A U11A C12U C13G
The “aptazyme ON/OFF ratio” value of the first is lower: 1.07 for the first, 1.34 for the second.

Going from U7A U8G G9C U10A U11A C12U C13U to U7A U8G G9C U10A U11A C12U C13A, the “aptazyme ON/OFF ratio” value falls from 1.57 to 1.42.

Compared with U7A U8G G9A U10G U11G C13U, U7A U8G G9A U10G U11G C13A is lower in “aptazyme ON/OFF ratio” value: 1.22 for the first, 1.06 for the second.

First: U7A U8G G9A U10G U11G C13G
Second: U7A U8G G9C U10A U11C C12U
The “aptazyme ON/OFF ratio” value of the first is higher: 1.42 for the first, 1.04 for the second.

First: U7A U8G G9C U10A U11C C12A
Second: U7A U8G G9C U10A U11C C12G
The “aptazyme ON/OFF ratio” value of the first is higher: 1.29 for the first, 1.22 for the second.

U7A U8G G9A U10G U11A C12A and U7A U8G G9A U10G U11A C12G are the same in “aptazyme ON/OFF ratio” value: 1.28 for the first, 1.28 for the second.

Compared with U7A U8G G9A U10G U11A C12U, U7A U8G G9A U11G C13G is higher in “aptazyme ON/OFF ratio” value: 1.12 for the first, 1.16 for the second.

Compared with U7A U8G G9A U11G C13A, U7A U8G G9A U11G C13U is higher in “aptazyme ON/OFF ratio” value: 1.39 for the first, 1.4 for the second.

Going from U7A U8G G9A U11G C12U C13A to U7A U8G G9A U11G C12U C13U, the “aptazyme ON/OFF ratio” value rises from 1.12 to 1.5.

First: U7A U8G G9A U11G C12U C13G
Second: U7A U8G C12U C13A
The “aptazyme ON/OFF ratio” value of the first is higher: 1.44 for the first, 1.23 for the second.

Compared with U7A U8G C12U C13U, U7A U8G C12U C13G is lower in “aptazyme ON/OFF ratio” value: 1.53 for the first, 1.24 for the second.

Compared with U7A U8G G9A U11A C12U C13A, U7A U8G G9A U11A C12U C13U is lower in “aptazyme ON/OFF ratio” value: 1.37 for the first, 1.32 for the second.

Compared with U7A U8G G9A U11A C12U C13G, U7A U8G G9A U10A U11A C12A C13A is higher in “aptazyme ON/OFF ratio” value: 1.28 for the first, 1.3 for the second.

First: U7A U8G G9A U10A U11A C12A C13G
Second: U7A U8G G9A U10A U11A C12A C13U
The “aptazyme ON/OFF ratio” value of the first is lower: 1.13 for the first, 1.29 for the second.

Going from U7A U8G G9C C12U to U7A U8G G9C C12A, the “aptazyme ON/OFF ratio” value falls from 1.88 to 1.78.

Going from U7A U8G G9C C12G to U7A U8C U11G C13U, the “aptazyme ON/OFF ratio” value falls from 1.29 to 1.21.

Going from U7A U8C U11G C13A to U7A U8C U11G C13G, the “aptazyme ON/OFF ratio” value rises from 1.12 to 1.15.

Going from U7A U8G G9C to U7A U8G G9A, the “aptazyme ON/OFF ratio” value rises from 1.97 to 3.13.

First: U7A U8G G9A U10G U11A C12G C13G
Second: U7A U8G G9A U10G U11A C12G C13A
The “aptazyme ON/OFF ratio” value of the first is lower: 1.11 for the first, 1.15 for the second.

U7A U8G G9A U10G U11A C12G C13U and U7A U8G G9C C12U C13G are the same in “aptazyme ON/OFF ratio” value: 1.22 for the first, 1.22 for the second.

First: U7A U8G G9C C12U C13A
Second: U7A U8G G9C C12U C13U
The “aptazyme ON/OFF ratio” value of the first is higher: 1.4 for the first, 1.21 for the second.

First: U7A U8G G9C C12A C13G
Second: U7A U8G G9C C12A C13A
The “aptazyme ON/OFF ratio” value of the first is lower: 1.16 for the first, 1.46 for the second.

Compared with U7A U8G G9C C12A C13U, U7A U8G G9A U10G C12G C13A is higher in “aptazyme ON/OFF ratio” value: 1.29 for the first, 1.5 for the second.

Compared with U7A U8G G9A U10G C12G C13U, U7A U8G G9A U10G C12G C13G is lower in “aptazyme ON/OFF ratio” value: 1.33 for the first, 1.17 for the second.

First: U7A U8G G9A U10A U11C C12A
Second: U7A U8G G9A U10A U11C C12G
The “aptazyme ON/OFF ratio” value of the first is higher: 1.44 for the first, 1.37 for the second.

First: U7A U8G G9A U10A U11C C12U
Second: U7A U8G G9A U10A U11C C13A
The “aptazyme ON/OFF ratio” value of the first is lower: 1.04 for the first, 1.05 for the second.

U7A U8G G9A U10A U11C C13U and U7A U8G G9A U10A U11C C13G are the same in “aptazyme ON/OFF ratio” value: 1.04 for the first, 1.04 for the second.

Going from U7A U8G G9A U10G U11C to U7A U8G G9A U10G U11G, the “aptazyme ON/OFF ratio” value rises from 1.01 to 1.39.

Compared with U7A U8G G9A U10G U11A, U7A U8G C12A C13U is higher in “aptazyme ON/OFF ratio” value: 1.06 for the first, 1.31 for the second.

First: U7A U8G C12A C13G
Second: U7A U8G C12A C13A
The “aptazyme ON/OFF ratio” value of the first is lower: 1.25 for the first, 1.27 for the second.

First: U7A U8G G9A C12G
Second: U7A U8G G9A C12U
The “aptazyme ON/OFF ratio” value of the first is higher: 1.79 for the first, 1.63 for the second.

Going from U7A U8G G9A C12A to U7A U8G G9A C12A C13G, the “aptazyme ON/OFF ratio” value falls from 1.69 to 1.19.

Compared with U7A U8G G9A C12A C13U, U7A U8G G9A C12A C13A is higher in “aptazyme ON/OFF ratio” value: 1.35 for the first, 1.41 for the second.

Compared with U7A U8G C12G C13U, U7A U8G C12G C13G is lower in “aptazyme ON/OFF ratio” value: 1.38 for the first, 1.27 for the second.

First: U7A U8G C12G C13A
Second: U7A U8G G9A C13G
The “aptazyme ON/OFF ratio” value of the first is higher: 1.38 for the first, 1.18 for the second.

In the case of U7A U8G G9A C13U, the “aptazyme ON/OFF ratio” value is reported as 1.39.

Source: the RNAGym collection of RNA variant scans (doi:10.1021/acssynbio.7b00057)
